Measurements: the supplement of paper PMC9732359
± gives the uncertainty stated by the source.

Assay: protein stability index of a GFP-peptide fusion (yeast GPS) (PSI 1-4); higher = more stable; sorted into four equal gates, so the index is relative within each strain
Procedure, shortened: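 Plasmids in a pooled yeast library fused tiled 17-residue yeast protein peptides downstream of GFP and also expressed Cherry. Mid-log cultures grown without leucine were sorted into four equal gates by GFP/Cherry fluorescence ratio. Each gate's plasmids were PCR-amplified and Illumina-sequenced, and reads were matched to strains by barcodes. The protein stability index is derived by multiplying each gate's read frequency by its gate number and summing the results.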

Sequence	protein stability index (doa10∆)	protein stability index (pdr5∆)	protein stability index (san1∆)	protein stability index (ubr1∆)
NKVSNTVSPTQDKDAIR [SIR2]	2.98 ± 0.052	3.26 ± 0.07	3.17 ± 0.056	3.11 ± 0.054
PGSRASSRFIKGGSLYG [RPN2]	2.19 ± 0.12	1.92 ± 0.11	1.45 ± 0.11	2.14 ± 0.069
LIGRPPLLVPGMTPCTV [FAS1]	1.32 ± 0.071	1.82 ± 0.079	1.81 ± 0.11	2.15 ± 0.06
IEDEDEPFNAGIKYHAT [SMC1]	3.04 ± 0.083	2.82 ± 0.1	2.9 ± 0.062	2.89 ± 0.05
KLRAARAKAMKFADGFL [RPS3]	3.3 ± 0.17	3.03 ± 0.14	2.44 ± 0.29	3.16 ± 0.065
MAGLMHFKKPDITVHGE [RRP45]	2.89 ± 0.19	2.14 ± 0.13	1.76 ± 0.16	1.25 ± 0.092
ALPSTHKVTQKKDIKIG [SIR4]	2.36 ± 0.099	2.46 ± 0.071	2.56 ± 0.07	2.77 ± 0.067
APKIHILDPSTEYCVGD [YMR129W/POM152]	2.91 ± 0.13	3.35 ± 0.092	2.97 ± 0.087	2.79 ± 0.13
NETSEQLVPIRLEFDQD [SNF5]	3.19 ± 0.097	3.12 ± 0.099	3.31 ± 0.11	3.29 ± 0.07
EGNTVLEKGNNPSVKQG [SWP82]	3.11 ± 0.067	3.12 ± 0.082	3.26 ± 0.065	2.87 ± 0.064
EWRKSAIANTLLYLRLK [PRP8]	1.85 ± 0.063	1.54 ± 0.051	1.41 ± 0.095	1.37 ± 0.047
NLPEEERKQIHEFKLIV [GRR1]	2.13 ± 0.29	3.35 ± 0.24		2.73 ± 0.13
REASKDNVDFILSNVDL [RPB3]	3.49 ± 0.1	3.3 ± 0.085	3.38 ± 0.061	3.32 ± 0.073
ILSEILCQINKCSTRGL [YML103C/NUP188]	1.31 ± 0.088	1.55 ± 0.084	1.98 ± 0.097	2 ± 0.057
DTFRAGAFDQLKQNAIR [SRP54]	2.82 ± 0.058	2.99 ± 0.056	3.09 ± 0.053	3.09 ± 0.076
YQRKRLVTQHKAKYNTP [RPL5]	3.21 ± 0.3	2.8 ± 0.2		
LYPDSSSFKKNLLKFIT [RPN3]	1.19 ± 0.075	1.26 ± 0.069	1.05 ± 0.13	1.25 ± 0.18
RLEFDQDRDRFFLRDTL [SNF5]	3.07 ± 0.061	3.38 ± 0.065	3.06 ± 0.048	3.4 ± 0.061
LPAPPVCIRPSVMMQDS [RPO31]	1.61 ± 0.081	2.08 ± 0.1	1.93 ± 0.11	2.04 ± 0.095
KNIQSKDSYINANTIET [FAS2]	2.9 ± 0.05	2.88 ± 0.043	2.9 ± 0.038	2.94 ± 0.052
TSGKVELPKKLLNLPPF [SRB8]	2.57 ± 0.27	3.1 ± 0.25	2.67 ± 0.26	2.55 ± 0.14
YVGNKRLELAGQLISLL [RET1]	2.84 ± 0.083	3.25 ± 0.092	2.7 ± 0.074	2.92 ± 0.079
NLRLLNSIDSTSRIELE [ECM29]	2.91 ± 0.094	3.08 ± 0.077	2.92 ± 0.064	2.98 ± 0.057
IQLSTVNRQSPLFFVDL [RGR1]	1.59 ± 0.08	1.69 ± 0.094	1.9 ± 0.12	1.76 ± 0.099
NNIKNGTNNISQHGQGN [YDL088C/ASM4]	2.93 ± 0.046	2.87 ± 0.033	3.05 ± 0.034	3.06 ± 0.021
SRDKTIKVWTIKGQCLA [ASC1]	1.63 ± 0.078	2.04 ± 0.074	2.12 ± 0.11	1.83 ± 0.06
GEIDFIKNIGKSLKNNF [YML103C/NUP188]	2.59 ± 0.21	2.57 ± 0.18	2.17 ± 0.15	

Sequence	protein stability index (doa10∆)	protein stability index (pdr5∆)	protein stability index (san1∆)	protein stability index (ubr1∆)
LDNFQKSVEKTMIKKTT [SMC3]		3.29 ± 0.19	2.89 ± 0.069	3.17 ± 0.075
CDEHMGLSLAGLAPDAR [PRE5]	2.79 ± 0.18	3.08 ± 0.15	2.56 ± 0.12	2.76 ± 0.093
AKKRRPAAKGKNLSFKR [RRP6]	2.9 ± 0.12	2.92 ± 0.09	2.67 ± 0.095	2.81 ± 0.085
ILNELEVFIGRVKDQDG [YJR042W/NUP85]	3.06 ± 0.14	3.05 ± 0.18	3 ± 0.12	2.59 ± 0.059
AKTLTYPEVVTPYNIDR [RPO21]	2.17 ± 0.074	2.35 ± 0.078	1.94 ± 0.073	2.05 ± 0.074
MAGSQFENGNITGEDEV [RRP45]	3.02 ± 0.095	3.08 ± 0.1	3.13 ± 0.13	2.95 ± 0.09
LQLTTNTEQGDSDELGG [SNM1]	3.25 ± 0.16	3.55 ± 0.29	3.29 ± 0.11	3.09 ± 0.24
RHMVDDKIHARARGPMQ [RPB2]	3.38 ± 0.17	3.48 ± 0.13	3.27 ± 0.16	2.7 ± 0.16
MNGRSLTYAQQQLNKQR [SNF6]	3.28 ± 0.26	3.36 ± 0.14	3.02 ± 0.15	3.23 ± 0.15
FITAKDKYKLYPVRIPR [YJR042W/NUP85]	2.87 ± 0.06	2.73 ± 0.087	3.06 ± 0.077	2.89 ± 0.069
GKKLTDEINTAQDKWHL [RET1]	3.22 ± 0.1	3.18 ± 0.084	3.09 ± 0.054	2.95 ± 0.13
HFKKPDITVHGEQIIVH [RRP45]	1.43 ± 0.14	1.37 ± 0.23		1.4 ± 0.13
LMRQALAIKDSKKRFAA [RPO21]	1.83 ± 0.062	2.12 ± 0.055	1.98 ± 0.072	1.53 ± 0.049
LGKKGVPYVVTHDGRTI [RPS4A]	2.43 ± 0.068	2.52 ± 0.092	1.66 ± 0.098	2.13 ± 0.054
KGRKTNKYANNDFANNL [CSL4]	3.28 ± 0.066	3.14 ± 0.053	3.13 ± 0.051	3.15 ± 0.095
YAVAEQCPVKSAEDQLY [QCR2]	3.22 ± 0.13		3.15 ± 0.14	3.34 ± 0.21
IDKLSDVVMKATEPQMV [PRP8]	2.38 ± 0.063	2.71 ± 0.064	2.42 ± 0.065	2.28 ± 0.055
LKLENLHVVSKSSIEKD [SIN4]	3.13 ± 0.094	2.74 ± 0.11	3.14 ± 0.1	3.12 ± 0.068
SGWGAVVYIIKKDEVVK [PUP3]	3.25 ± 0.088	2.96 ± 0.072	3.33 ± 0.052	3.27 ± 0.057
VWDKFAVNLLNCPHSDS [SSN2]		2.81 ± 0.27		
NLYHVTEDGWIYHGNHD [PRE2]		2.97 ± 0.23	2.88 ± 0.18	3.28 ± 0.22
TVALREIRRFQKSTELL [HHT1]	2.99 ± 0.098	2.91 ± 0.087	3.07 ± 0.068	3.02 ± 0.078
NSESDSKSDSDSEERDP [ITC1]	3.14 ± 0.14	2.99 ± 0.2	3.01 ± 0.12	3.22 ± 0.12
DKLTRVHDKIWCCRSGS [PRE3]	2.78 ± 0.061	2.68 ± 0.068	2.67 ± 0.056	2.9 ± 0.032
CVHMVYEYAEHDLLQII [SSN3]	2.26 ± 0.086	2.21 ± 0.089	2.12 ± 0.11	2.48 ± 0.08
RYNRAVPDSKIRIYDLG [RPL10]	2.53 ± 0.092	3.04 ± 0.15	1.89 ± 0.19	2.55 ± 0.1
